Starred links: 1 amine or outer side, 2 acyl side, 3 side chain; linkers in the order of their positions; H or OH if unused. Non-standard residues stand in square brackets, D forms with d. Groups on a side chain read outwards from the residue. No end group written: not given here. *: point of attachment. C20 diacid = O=C(O)CCCCCCCCCCCCCCCCCCC(=O)*; γGlu = O=C(O)[C@H](CCC(=O)[*:2])N[*:1]; εLys = N[C@@H](CCCCN[*:1])C(=O)[*:2]; AEEA = NCCOCCOCC(=O)O; Aib = CC(C)(N)C(=O)O
T1: human GIP receptor (human, UniProt P48546 22-466)
T1 sequence (looked up): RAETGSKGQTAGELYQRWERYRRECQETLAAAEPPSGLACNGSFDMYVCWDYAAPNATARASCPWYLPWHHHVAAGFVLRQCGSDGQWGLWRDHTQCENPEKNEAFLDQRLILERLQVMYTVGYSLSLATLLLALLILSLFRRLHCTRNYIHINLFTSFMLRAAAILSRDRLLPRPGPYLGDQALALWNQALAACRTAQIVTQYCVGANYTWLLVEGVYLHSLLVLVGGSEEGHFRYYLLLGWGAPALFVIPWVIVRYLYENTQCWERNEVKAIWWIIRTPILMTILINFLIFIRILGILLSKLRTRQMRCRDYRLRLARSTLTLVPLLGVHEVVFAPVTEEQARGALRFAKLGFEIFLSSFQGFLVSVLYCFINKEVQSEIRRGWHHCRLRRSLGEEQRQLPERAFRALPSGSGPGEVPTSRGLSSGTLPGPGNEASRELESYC

T2: human neuropeptide Y2 (NPY2) receptor (human, UniProt P49146 1-381)
T2 sequence (looked up): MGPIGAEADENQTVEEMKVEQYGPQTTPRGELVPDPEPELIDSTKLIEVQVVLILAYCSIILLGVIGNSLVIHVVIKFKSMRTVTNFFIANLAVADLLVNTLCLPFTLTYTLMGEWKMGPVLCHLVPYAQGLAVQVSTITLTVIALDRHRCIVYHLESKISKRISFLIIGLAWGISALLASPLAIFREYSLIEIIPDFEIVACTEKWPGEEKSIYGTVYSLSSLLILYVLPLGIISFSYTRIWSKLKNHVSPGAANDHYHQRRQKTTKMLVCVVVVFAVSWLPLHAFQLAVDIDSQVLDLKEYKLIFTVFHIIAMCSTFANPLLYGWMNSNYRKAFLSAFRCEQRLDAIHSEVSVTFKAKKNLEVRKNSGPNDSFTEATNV


Tests used:
Assay in all cases: cell-based or functional assay
[1] = biological target: human GLP-1 receptor (human, UniProt P43220 24-463)
[2] = biological target: T1, human GIP receptor
[3] = biological target: T2, human neuropeptide Y2 (NPY2) receptor

EC50, CreLuc assay, 0.5% hP [1] [nM]	EC50, CreLuc assay, 100% hP [1] [nM]	EC50, CreLuc assay, 0.5% hP [2] [nM]	EC50, CreLuc assay, 100% hP [2] [nM]	EC50, CreLuc assay, 0.5% hP [3] [nM]	EC50, CreLuc assay, 100% hP [3] [nM]	Binder
0.09	1.39	0.13	1.61	14.6	66.7	Y[Aib]EGTFTSDYSI[Aib]LEEQAQ[Aib]AFVQWLIK([εLys-γGlu-γGlu-γGlu-γGlu-γGlu-C20 diacid])GGPSSGASLRHYYNWLTRQRY-NH2 (also: TFA salt) [Compound 34]
0.11	1.6	0.14	1.15	17.2	46.5	Y[Aib]EGTFTSDYSI[Aib]LEEQAQ[Aib]AFVQWLIK([εLys-AEEA-γGlu-γGlu-γGlu-γGlu-γGlu-C20 diacid])GGPSSGASLRHYYNWLTRQRY-NH2 (also: TFA salt) [Compound 45]
0.41	5.91	0.64	1.97	13.1	21.1	Y[Aib]EGTFTSDYSI[Aib]LEKQAQ[Aib]EFVQWLIK([εLys-γGlu-γGlu-γGlu-γGlu-γGlu-γGlu-γGlu-C20 diacid])GGPSSGASLRHYYNWLTRQRY-NH2 (also: TFA salt) [Compound 43]
0.28	7.78	0.26	1.57	8.03	26.8	YXEGTFTSDYSIXLEKQAQXEFVQWLIKGGPSSGASLRHYYNWLTRQRY (Aib at 2, 13, 20; K28 side chain: C20DA-gGlu-gGlu-gGlu-gGlu-gGlu-OEG-OEG; C-terminal NH2) [Compound 36]
0.14	3.17	0.25	1.51	9.93	26.7	YXEGTFTSDYSIXLEKQAQXAFVEWLIKGGPSSAVSLRHYYNWLTRQRY (Aib at 2, 13, 20; K28 side chain: C20DA-gGlu-gGlu-gGlu-gGlu-gGlu-gGlu-eLys; C-terminal NH2) [Compound 33]
0.09	0.82	0.06	0.4	26.9	61.5	YXEGTFTSDYSIXLEKQAQXAFVEWLIKGGPSSGASXRHYYNWLTRQRY (Aib at 2, 13, 20, 37; NMeR 48; K28 side chain: C20DA-gGlu-gGlu-gGlu-gGlu-gGlu-gGlu-eLys; C-terminal NH2) [Compound 39]
0.07	2.12	0.05	1.14	9.35	24.5	YXEGTFTSDYSIXLEKQAQXAFVEWLIKGGPSSGQSXRHYYNWLTRQRY (Aib at 2, 13, 20, 37; K28 side chain: C20DA-gGlu-gGlu-gGlu-gGlu-gGlu-gGlu-eLys; C-terminal NH2) [Compound 44]
0.11	5.13	0.24	1.44	9.53	35.5	YXEGTFTSDYSIXLEKQAQXAFVQWLIKGGPESGASLRHYYNWLTRQRY (Aib at 2, 13, 20; K28 side chain: C20DA-gGlu-gGlu-gGlu-gGlu-gGlu-gGlu-eLys; C-terminal NH2) [Compound 37]
0.06	1.28	0.04	0.7	6.9	17.8	YXEGTFTSDYSIXLEKQAQXAFVEWLIKGGPSSGVSXRHYYNWLTRQRY (Aib at 2, 13, 20, 37; K28 side chain: C20DA-gGlu-gGlu-gGlu-gGlu-gGlu-gGlu-eLys; C-terminal NH2) [Compound 38]
0.07	1.3	0.06	0.96	11.6	29.3	YXEGTFTSDYSIXLEKQAQXAFVQWLIKGGPSSGESLRHYYNWLTRQRY (Aib at 2, 13, 20; K28 side chain: C20DA-gGlu-gGlu-gGlu-gGlu-gGlu-gGlu-eK; C-terminal NH2) [Compound 35]
0.06	1.47	0.07	0.62	10.2	34.6	YXEGTFTSDYSIXLEKQAQXAFVEWLIKGGPSSPQSLRHYYNWLTRQRY (Aib at 2, 13, 20; K28 side chain: C20DA-gGlu-gGlu-gGlu-gGlu-gGlu-gGlu-eLys; C-terminal NH2) [Compound 41]
0.36	7.15	0.15	1.34	8.82	19.1	YXEGTFTSDYSIXLEKQAQXAFVEWLIKGGPSEYVSIRHYYNWLTRQRY (Aib at 2, 13, 20; K28 side chain: C20DA-gGlu-gGlu-gGlu-gGlu-gGlu-gGlu-eLys; C-terminal NH2) [Compound 42]
0.46	9.04	0.48	4.36	11.9	26.4	YXEGTFTSDYSIXLEKQAQXAFVEWLIKGGPSSYVSLRHYYNWLTRQRY (Aib at 2, 13, 20; K28 side chain: C20DA-gGlu-gGlu-gGlu-gGlu-gGlu-gGlu-eLys; C-terminal NH2) [Compound 40]

The next lines start with the binder.

Binder	EC50, CreLuc assay, 0.5% hP [1] [nM]	EC50, CreLuc assay, 100% hP [1] [nM]	EC50, CreLuc assay, 0.5% hP [2] [nM]	EC50, CreLuc assay, 100% hP [2] [nM]	EC50, CreLuc assay, 0.5% hP [3] [nM]	EC50, CreLuc assay, 100% hP [3] [nM]
Y[Aib]EGTFTSDYSI[Aib]LEKQAQ[Aib]EFVQWLIKGGPSSGASLRHYYNWLTRQRY-NH2 (not fully specified (residue 28); also: TFA salt) [Compound 28]	0.22	6.51	0.38	3.08	10.3	46
YXEGTFTSDYSIXLEKQAQXAFVEWLIKGGPSSGASXRHYYNWLTXQRY (Aib at 2, 13, 20, 37; hArg 46; DTyr 49; K28 side chain: C20DA-gGlu-gGlu-gGlu-gGlu-gGlu-gGlu-eLys; C-terminal NH2) [Compound 26]	0.07	1.18	0.09	0.7	> 100	670
YXEGTFTSDYSIXLEKQAQXAFVEWLIKGGPSSGASXRHYXNRXTRQRY (Aib at 2, 13, 20, 37, 41, 44; K28 side chain: C20DA-gGlu-gGlu-gGlu-gGlu-gGlu-gGlu-eLys; C-terminal NH2) [Compound 4]	0.09	1.74	0.25	1.66	66.4	182
YXEGTFTSDYSIXLEKQAQXAFVQWLIKGGPESGASLRHYYNWLTRQRY (Aib at 2, 13, 20; K28 side chain: C20DA-gGlu-gGlu-gGlu-gGlu-gGlu; C-terminal NH2) [Compound 29]	0.13	6.74	0.23	4.08	8.79	74.5
YXEGTFTSDYSIXLEEQAQXAFVEWLIKGGPSSGQSLRHYYNWLTRQRY (Aib at 2, 13, 20; K28 side chain: C20DA-gGlu-gGlu-gGlu-gGlu-gGlu-gGlu-eLys; C-terminal NH2) [Compound 31]	0.06	2.94	0.15	2.63	13.4	43.5
YXEGTFTSDYSIXLEEQAQXAFVQWLIKGGPSSGASLRHYYNWLTRQRY (Aib at 2, 13, 20; K28 side chain: C20DA-gGlu-gGlu-Glu-gGlu-gGlu-gGlu-eLys; C-terminal NH2) [Compound 30]	0.08	1.08	0.13	1.06	13.3	56.2
YXEGTFTSDYSIXLEKQAQXAFVQWLIKGGPESGASLRHYYNWLTRQRY (Aib at 2, 13, 20; K28 side chain: C20DA-gGlu-gGlu-gGlu-gGlu-gGlu-OEG-OEG; C-terminal NH2) [Compound 32]	0.07	4.74	0.16	1.15	12.2	49.3
YXEGTFTSDYSIXLEKQAQXAFVEWLIKGGPSSGVSIRHYYNWLTRQRY (Aib at 2, 13, 20; K28 side chain: C20DA-gGlu-gGlu-gGlu-gGlu-gGlu-gGlu-eLys; C-terminal NH2) [Compound 27]	0.1	1.97	0.17	1.11	7.16	21
YXEGTFTSDYSIXLEKQAQXAFVEWLIKGGPSSGASLRHYYNWLTRQRY (Aib at 2, 13, 20; DLeu 37; DHis 39; DArg 46; DTyr 49; K28 side chain: C20DA-gGlu-gGlu-gGlu-gGlu-gGlu-gGlu-eLys; C-terminal NH2) [Compound 5]	0.11	1.43	0.17	1.07	> 99.9	> 999

— patent US20240247080A1, “GLP1/GIP/NPY2 RECEPTOR TRIPLE AGONISTS” (Boehringer Ingelheim International GmbH, priority 2022, published 2024)
